Data set [1] concerns the molecule itself. The experiment in a line: SEC-MALS.
Data set [2] concerns the molecule itself. The experiment in a line: ITC. (In general: Isothermal titration calorimetry measures the heat released or taken up as one component is titrated into another.)

B1: PV 2C NΔ39 (poliovirus 2C protein lacking the amino-terminal 39 residues) (domain or fragment)
chain: ARDKLEFVTKLRQLEMLENQISTIHQSCPSQEHQEILFNNVRWLSIQSKRFAPLYAVEAKRIQKLEHTINNYIQFKSKHRIEPVCLLVHGSPGTGKSVATNLIARAIAERENTSTYSLPPDPSHFDGYKQQGVVIMDDLNQNPDGADMKLFCQMVSTVEFIPPMASLEEKGILFTSNYVLASTNSSRISPPTVAHSDALARRFAFDMDIQVMNEYSRDGKLNMAMATEMCKNCHQPANFKRCCPLVCGKAIQLMDKSSRVRYSIDQITTMIINERNRRSNIGNCMEALFQ
As for B1, the “stoichiometry N” value in data set [1] amounted to 2. Further, the Kd in data set [2] was around 400 nM.

As a reminder, the stoichiometry N is a count of units in the complex or per binding partner. A word on the Kd: it is the constant that tells how readily two partners part at equilibrium. Low readings indicate higher affinity, high ones lower affinity.
